Publication PMC7696055 (Pharmaceutics, 2020)

Key:
[1] = test system: A431/CCKBR tumors; details: mouse, in vivo, iv
[2] = cited from earlier work
Description: The radiolabeled PP-F11N is a small molecular weight peptide (2.032 kDa), which can be reabsorbed in the proximal tu ...

| SMILES | location of radioactive signals in SPECT/CT [1] | radiation dose received by stomach (median) ([2]; MTC patients, highest organ dose) | kidney radiation dose ([2]; six MTC patients) |
| --- | --- | --- | --- |
| CCCC[C@H](NC(=O)[C@H](Cc1c[nH]c2ccccc12)NC(=O)CNC(=O)[C@H](Cc1ccc(O)cc1)NC(=O)[C@H](C)NC(=O)[C@@H](CCC(=O)O)NC(=O)[C@@H](CCC(=O)O)NC(=O)[C@@H](CCC(=O)O)NC(=O)[C@@H](CCC(=O)O)NC(=O)[C@@H](CCC(=O)O)NC(=O)[C@@H](CCC(=O)O)NC(=O)CN1CCN(CC(=O)O)CCN(CC(=O)O)CCN(CC(=O)O)CC1)C(=O)N[C@@H](CC(=O)O)C(=O)N[C@@H](Cc1ccccc1)C(N)=O [[^111In]In-PP-F11N, metal not drawn] | only detected in the excretion organs including kidneys and bladder | – | – |
| CCCC[C@H](NC(=O)[C@H](Cc1c[nH]c2ccccc12)NC(=O)CNC(=O)[C@H](Cc1ccc(O)cc1)NC(=O)[C@H](C)NC(=O)[C@@H](CCC(=O)O)NC(=O)[C@@H](CCC(=O)O)NC(=O)[C@@H](CCC(=O)O)NC(=O)[C@@H](CCC(=O)O)NC(=O)[C@@H](CCC(=O)O)NC(=O)[C@@H](CCC(=O)O)NC(=O)CN1CCN(CC(=O)O)CCN(CC(=O)O)CCN(CC(=O)O)CC1)C(=O)N[C@@H](CC(=O)O)C(=O)N[C@@H](Cc1ccccc1)C(N)=O [[^177Lu]Lu-PP-F11N, metal not drawn] | – | 0.42 Gy/GBq | relatively low kidney radiation dose |
